Target: the molecule itself
Assay: SEC + other: SDS-PAGE

Protein	stoichiometry N
YidH (natural protein, E. coli, UniProt P0ADM0 1-115, looked up) MKISRLGEAPDYRFSLANERTFLAWIRTALGFLAAGVGLDQLAPDFATPVIRELLALLLCLFSGGLAMYGYLRWLRNEKAMRLKEDLPYTNSLLIISLILMVVAVIVMGLVLYAG	2
YgaP (natural protein, E. coli, UniProt P55734 1-174, looked up) MALTTISPHDAQELIARGAKLIDIRDADEYLREHIPEADLAPLSVLEQSGLPAKLRHEQIIFHCQAGKRTSNNADKLAAIAAPAEIFLLEDGIDGWKKAGLPVAVNKSQPLPLMRQVQIAAGGLILIGVVLGYTVNSGFFLLSGFVGAGLLFAGISGFCGMARLLDKMPWNQRA	2

— article PMC2705707 (Journal of Structural and Functional Genomics, 2009)
